A short description of this data set: label from the status in PepcDB records.
Turning to “MFRGVAPPPERSSTPLPPTMTTTPEPGAALLLLIVSQLPGIGPSRARALLNRFGATPALLEADYDALRQIPGIGETTARETAERLANPAWRDKAREKGENQLARAERLEASVITILDPAYPPLLKEIYDPPLLLFARGNPEALCVPSLAVVGTRKATAYGKQATEFICREMVNNGYAILSGLAYGIDMMAHRAAVESNGVTIAVLGCGIDRIYTDPAGRLWPRILERGAIVSEEWIGIKPEPGNFPRRNRLIAGLAQGTLIVESDIKGGSMITASYALEQNREVFAIPGSIFSGTSRGTNYLIQQNHAKPVFSAEDILAELNPAQHPALKTHPEASEPFDLNIEESCIVEALQSGAMHIDLIAEKTGLKIDALLVHLFELELKRIIEQEPGQIFRKRTP”, the protein production entry was “failed”.

On to “MFRSKRYQMVAYAITGSALWGLSGTVSSILFSRYGMPFSTLVTIRMVFSGLILLAAGRGFVGKKDLPMFLVFAIPGLFGVQILYLATISFSNAPVATLLQFLFFPMVAVYDYITIRSLTVSSLILALIFSVAGIYELTTGFPLGGTALRISLTALILGLATAATAALYTVTSARIVKEYGGLRTVASGMMVGGLVSLPLGSFSGVPYFHGLGQADVIPVLALTIFVIVFGTSMAFYLYINSMRYISPVEAAVSGTFEPVAAAMSSYLLLGIKLSAMQYLGGALIVISILVIVISKNRRG”, for which the protein production entry is given as “failed”.

For the sequence “MFRSLNSYLIDFTGLVVISVLICLVSAGGSLASGLPFQIPASVLQLNTIFISILIEALPFVLIGVLIAGFIQIFVTEEHIRSLFPKNRFSGVIVSCLLGACFPACECGIVPIVRRLVSKGVPIYAGVGFLLTGPLINPIVVLSTYMAFGNDLRMAVLRVAVGFAAAVIIAFAISMMFRSSQLKTESRQTAAHCAHSGRRSPFSEKLFDMLKHAVDEFFDMGRFLIIGALVAALVQTYLPLKSLFVFGGGMLDSALVMMGLAYFLSLCSEADAFIGASFTNLFPSSSILAFLVYGPMLDLKNTVMMLHAFKPKFVICLSVLITVVVFVCIKVVSLL”, the protein production result is given as “failed”.

Regarding “MFRSSRRQAAFDFDLLMPETPARRTARAANPDRDVVDAEFVTIKENRVRQPGNDNRGAARRQMVKPSVTIGALGLAFIGWLDRRLSRLSADAYSALVAGLAIFVFVCSGGLSVVVPETSAVAASVNPLAISHVTITPQEAGGMDILLINGIVENNGGNLEEVPALRADLFAAKGQLVASMVIEPPVKEMQPGFSHGFSAKLRHPGGKTPEIKLSFVEAGASAR”, the protein production entry is “failed”.

“MFRVTGTLSAASSPAVAAASFSAALRLSITPTLAIASPPHLRWFSKFSRQFLGGRISSLRPRIPSPCPIRLSGFPALKMRASFSSGSSGSSASREILVQHLLVKNNDVELFAELQKKFLDGEEMSDLAAEYSICPSKKDGGILGWVKLGQMVPEFEEAAFKAELNQVVRCRTQFGLHLLQVLSEREPVKDIQVEELHSKMQDPVFMDEAQLIDVREPNEIEIASLPGFKVFPLRQFGTWAPDITSKLNPEKDTFVLCKVGGRSMQVANWLQSQGFKSVYNITGGIQAYSLKVDPSIPTY”: the protein production result was “failed”.

As to “MFRWERSIPLRGSAAALCNNLSVLQLPARNLTYFGVVHGPSAQLLSAAPEGVPLAQRQLHAKEGAGVSPPLITQVHWCVLPFRVLLVLTSHRGIQMYESNGYTMVYWHALDSGDASPVQAVFARGIAASGHFICVGTWSGRVLVFDIPAKGPNIVLSEELAGHQMPITDIATEPAQGQDCVADMVTADDSGLLCVWRSGPEFTLLTRIPGFGVPCPSVQLWQGIIAAGYGNGQVHLYEATTGNLHVQINAHARAICALDLASEVGKLLSAGEDTFVHIWKLSRNPESGYIEVEHCHGECVADTQLCGARFCDSSGNSFAVTGYDLAEIRRFSSV”, the protein production entry is “failed”.

As to “MFSFNMFDHPIPRVFQNRFSTQYRCFSVSMLAGPNDRSDVEKGGKIIMPPSALDQLSRLNITYPMLFKLTNKNSDRMTHCGVLEFVADEGICYLPHWMMQNLLLEEGGLVQVESVNLQVATYSKFQPQSPDFLDITNPKAVLENALRNFACLTTGDVIAINYNEKIYELRVMETKPDKAVSIIECDMNVDFDAPLGYKEPERQVQHEESTEGEADHSGYAGELGFRAFSGSGNRLDGKKKGVEPSPSPIKPGDIKRGIPNYEFKLGKITFIRNSRPLVKKVEEDEAGGRFVAFSGEGQSLRKKGRKP”, the protein production result was “not failed”.

“MFSLNTLLNPPDNLSVGEIILISLILGMLHGVTPDEHTWPITFSYAIGKYSTKGGMKAGFLFSLGFTIQRAFLTTIGFLGLAAIYNQYNLDGPVYAVVGIVMAIAGSYILKGKYIHLPIDALFKSKQHTEEAGKVKDIPIKMTIVHGLVAGFGFGAYATIITFVLAPQLPSVVYAPLPGLFFGLGTMVMQIIFGMIFGNILRLKKMTEEQLSFIARKTAGRVLYYGGLVFLIVGLLIIVLPAIDNFAISTGNPIPNLDAINIGFLLVISVVGVIGISSILYGFREAKRLAKHI”: the protein production entry is “failed”.

As to “MFSPDSPISEFVSISTHVAPSVVKTTAGDYLLIWHLGGLPFVGRDEFELEQRHNTFNRLLQTLRAPDFANVAFWVHDVRRRRRIGAGGRFKQAFNQTLSDEYYTALSSQKIMQNELYFSMIYRPVVTGRRLVEKSANPDKIRAEEEQAVAKVVELATNVEAVLKDYAPYRLGMYEAKNGLVFSETLEFLGYLLNRIDEPVPVLPAPVPAYLPVSKHMFANKTGDFVIRTPDGINHFGAILNIKEYADGTYPGILNGLKYLDSEYVMTHSFSPVGRHDALKVLERTKGMMVSSGDKSSTQIRDLDVAMDDVASGNFVLGEYHFTLAVYADSQEKLARQIATTRAELSNAGFVSAKEDLAIASSFYSQLPGNWRFRTRIANLSSLNFLGLSPLHNFAQGKQHNNPWGDCVTTLQTTNGQPYYFNFHATHPSENSLGEKAIGNTMVIGKSGTGKTALINFLLSQVQKFDPIPTIFFFDKDRGAEIFVRACGGNYLALENGSPTGFNPFQCERNEANTQFLAELIKVLGGKAEYSAREEEDIYRAVEGMLDTPMHLRSMSNFRKSLPNMGDDGLYARLRRWTAGNSLGWVFDNPVDTIDLTRASIIGFDYTDVIDNAEVRVPVINYLLHRLEALIDGRPLIYVMDEFWKILDGKGGLKEFAKNKQKTIRKQNGLGIFATQSPEDALASDIAAALIEQTATMILLPNPNASRDDYMEGLKLTDAEYQVVVSLDERSRCFLVKQGHASAVCQLNLRGMDDALSVISSSTDNIEIMHQILAGKAGKLGVTVDQLTPEQWLEHHHHHH”, the protein production entry is listed as “failed”.

Consider “MFTALLFTLGIAAATSFNASAIDNHNNKNKLPDIGISGYSVLSTDKELQIGKAMMRQLRASQPLIQDPVLIEYINHLGNSLVKNAQGVNYAFEFFLINNNELNAFAFFGGHVGIHSGLITTADTESELASVIAHEISHVTQRHLARRLESQSQTQGLTMAAMLSSVLITLVNPTVGIAALSASMAVTQQASINYTRGNEKEADRVGIALLASSNYDPQGAASFFSKMSTKYRYASKPPAMLLTHPLPESRIADARQRALNYPARPLPPSLGFELTKARLKSRYQGEAKSNISFFKLQLEKKRYAIKAAAQYGLALSYFENKQTSEALQLLEMLEKNDKDNLFYVDALTDVYIANNQANKAIKMLERLNLFMPNNQVVSLNYANALLSVKEYDLAAQILQDFLLVNPGNFIAYDILTTLYRTQEKTGLMHMSKAEVYALLGAYPKAVDELQTSYAFLDEQPLMQKRVKARILQLQEQENRLKRL”, for which the protein production entry is “failed”.

Consider “MFTFGFTNPEGTPDFSTPGLICIAILYIVGIYINFVFTIRRLHDRNNTGWLSLLMLVPVVNIGLAIYLFCAKGTEGPNDYGPKRPTPSWERVLGWIYIALIPLALIFGVIAVIMAPTYEGYVEKSESIVIGSPSQSE”, for which the protein production result is “failed”.

As for “MFTFLMTVRTSRRVAFHSGKLPVVIGIVSFFAPLFSLSFLNLFTDNIDPHYMSLDKALAERTVIVITQSQILLPSTTYILLELKIINSELGRLALSASAINDMLGIFAMIVATTQATYIHVSHAIAYRDLVAVIIFFLIVFFVFKPMVQWIIDRTPEDKPVEDIYIHAVILTAFASAAYFVFFNMKYVLGPLIIGIIIPEGPPLGSALEAKFERLTMNVFLPISITFSAMRCDGLRILSQFTDIYFNIFLTLLILVIKLVACLTLCLYYKLPRSESLAVSLILSYKSFVEFVLYEAVLEEKFISQATYAFLILYSLLSAGIVPMVVRSMYDPKRKYVNYQKRDILHLEANSGLRILTCLHKPENVSETIAFLQLFSSPIHDFPIAVTVLHLVKLVGQINPIIVSHDKKLKRLHKNSYIHTANLAFRQFMQESLESVTVTTFTAFSHENLMHEDICTLALDRTTSMIVVPSGRKWTVDGMFESDDLAARQLNQSLLDRAPCSIGILVDRGQFSRKSYVTSKNRYNIDVGVLFIGGKDDREALSLVKRMKYNPRVRVTVIRLIFDHEIESEWDYILDNEGLKDLKSTESNEDILYTERIVTSVVEVVKAVQLLAEEYDLMVVGRDHDMTSQDLSGLTEWVELPELGVIGDLLAARDLNSKVSVLVVQQQQQQT”, the protein production result was “failed”.

For the sequence “MFTQRKKWLSGVAAGLLMAASVSASAEEKILHIYNWSDYIAPDTLANFQKETGIKVVYDVFDSNEVLEGKLMAGSTGFDLVVPSASFLERQLSAGVFKPLDKSKLPNEKNLDPELLALVSKHDPDNKYAIPYLWATTGIGYNVEKVKAVLGEDAPVNSWDLVLKPENLEKLKSCGVSFLDAPSEIFATVLNYLGKDPNSTLTADYTGSATDLLLKLRPNIRYFHSSQYINDLANGDICVAVGWAGDIMQASNRAKEAKNGVNVAYSIPKEGALAFFDVFAMPTDAKNQDEAYQFLNYLMRPDVIANISNHVFYANANQAATPLVNAEVRDNPGIYPPADVRAKMFTLKVQDPKIDRVITRAWTKVKSGK”, the protein production entry is reported as “failed”.

For “MFTTVITPRVSETDGVGHINNTTVPVWFEAGRHEIFKLFTPDLSFKRWRMVIIRMEVDYVNQMYYGQDVTVYTGIERIGNTSLTIYEEIHQNGVVCAKGRSVYVNFNFDTGRPEPIPDDIRVKLREHVWQPGE”, the protein production result is reported as “not failed”.

Take “MFVEVFIVGLLAGMSPGPDFFIVMKNSLGFGARVGILTSLGIASALIVHITYTVLGFAFLIETYPALFFTIQLLGAAYLIWLGFHAIRSSPPKKEEAEIEETQPIQSTKDSKSSIQGFKEGFITNLLNPKAALFFLSIFSQFITPQTADWVRWMYGLEVVVAVGLWFSFLAIFISYKHFRRFYQTHSYWFDRFLGAALLFFAIRIIIGAF”: the protein production result is recorded as “failed”.

On to “MFVRRFEEVLALPTAMTALLGCQLLGELIVRALHLPIPGPVLGLLLLLAWLLLGTTVTLPVSSSLPEVARGLLNHMSLLFIPAGVGIILHGQTLADQWLPISVSLFGSTALALIATALTFRAVCKIMERSKAKKEGGR”, for which the protein production result is given as “failed”.

Turning to “MFVYAYILMLLLTVLMCINLFIDSFKCPVKIRRILRGLVFLIMLRYVTLLIMCLKKSITYIYFMRPIVLLDILYIPLVILIMIFVFTRSAKFNFVYAAISGIIFFSLYIFLNFKILKTANPFYSYSFGYLIDLKSYSVVVAVVKVMVLILMLMLCGYFLRKSNIRRAGFCFLMIVILVMLVENISIIIMPKVMPEYLFGEVLLLICLNYMVRLFKK”, the protein production result is “failed”.

Turning to “MFYGRYDYPTGKFLWGNLRYQRVSEYNLQTFLNMKNSKLREEQIMSAKRDYYEVLGVSRDADKNTIKKAYRKLAKKYHPDTNQGNAQAAERFKEATEAYNILSDPEKKKMYDQFGHAAFDGSGAAGGAYGGAYSRNGGGTYQYAGPDGTFHEYHFEGNGDMDDFLKNIFGGSFGGFGGATRSSSKGSRSGFSGSGFGRSGFGGTGFSGSGFGGSGFSGSGFGESGSYGNYSQGGADVTAEITVGFDEAAFGCEKVIHLTENNGKAVGKALKVKIPAGIDTGKSIRLRGKGNPGINGGKAGDLLLKVKVASKPGYERKGMDVYTTVRVPFTTAVLGGEAKVETLHGNVLCKINPGTQSGTKIRLRGKGIVSMKDKNQHGDQYVTVQIDVPGNLSEEAKRKLREFEVACKKGQQGVA”, the protein production result is “failed”.

(Values after a protein production outcome set (Wang et al. 2014).)
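Note: failed if final PepcDB status was selected cloned or expressed and not failed if soluble or beyond.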
